The target of experiment [1] is protease domain (heavy chain) of murine urokinase-type plasminogen activator (muPA WT, after plasmin cleavage) (mouse (murine)) (UniProt P06869).
In experiment [2] the target is T1, protease domain (heavy chain) of murine urokinase-type plasminogen activator (muPA WT, after plasmin cleavage) (mouse (murine), UniProt P06869 180-433, C281 (122CT) disulfide-bonded to C149 (1CT) of the light chain).
T1 construct: Stood in the assay as one of the two chains of muPA WT or of its light-chain mutants; also called serine protease domain
T1 sequence (P06869 180-433): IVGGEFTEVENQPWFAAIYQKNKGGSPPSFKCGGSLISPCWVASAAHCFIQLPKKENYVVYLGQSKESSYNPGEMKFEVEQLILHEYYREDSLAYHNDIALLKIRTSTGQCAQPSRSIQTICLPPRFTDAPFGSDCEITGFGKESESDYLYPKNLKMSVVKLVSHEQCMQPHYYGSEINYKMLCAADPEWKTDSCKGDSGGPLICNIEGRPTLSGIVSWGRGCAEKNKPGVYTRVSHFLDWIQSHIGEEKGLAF
Briefly: HDX-MS; two-chain muPA (light chain disulfide-bonded to the protease domain; WT 20 μM, F(−2)CTA 8.5 μM, K4CTG 13 μM) compared with No-Light-Chain muPA (10 μM); PBS pH 7.4, 22 °C, deuteration 0, 30, 60, 120, 600 s. The note with it: both partners purified.

The target of experiment [3] is T1, protease domain (heavy chain) of murine …. Briefly: cell-based or functional assay.

Consider 3 molecules from article PMC11154964, “The Light Chain Allosterically Enhances the Protease Activity of Murine Urokinase-Type Plasminogen Activator” (Biochemistry, 2024).

Ends that are not written are not given here.

Sequence of protease domain (heavy chain) of murine urokinase-type plasminogen activator (muPA WT, after plasmin cleavage) (mouse (murine)) (P06869 180-433): as above

“light chain of muPA with the mutation F(−2CT)A (from UniProt P06869 153-179) (domain or fragment)”: in experiment [1], the kcat of the amidolytic activity (chromogenic substrate S2444) of two-chain muPA F(−2CT)A was 12 s^–1.

B1: disordered light chain of murine urokinase-type plasminogen activator (muPA WT, after plasmin cleavage) (domain or fragment, mouse (murine), UniProt P06869 153-179, looked up)
chain: SLSKKPSSSVDQQGFQCGQKALRPRFK
modifications: not fully specified; also: disulfide to Cys281 of the protease domain chain, disulfide at 17, other end not in the chain
notes: Stood in the assay as one of the two chains of muPA WT (133-413), tethered to m2 by a disulfide bond; The construct has an N-terminal 6xHis-tag and a TEV protease cleavage site; also called disordered linker; light chain of muPA WT
Consider B1, for which, in experiment [2], the binding result is recorded as “binds”.

B2: light chain of muPA with the mutation K4CTG (domain or fragment, mouse (murine), UniProt P06869 153-179, looked up)
chain: SLSKKPSSSVDQQGFQCGQGALRPRFK
modifications: not fully specified; also: disulfide to Cys281 of the protease domain chain, disulfide at 17, other end not in the chain
Take B2: the “kcat of the amidolytic activity (chromogenic substrate S2444) of two-chain muPA K4CTG” value in experiment [3] was 22 s^–1.
